In article PMC8633249 (2021) one finds Kd data, which are given here for one molecule.

The target in experiment [1] is T1, AGL55, 55-mer A-domain peptide of PAM_(NS88.2) (Streptococcus pyogenes (GAS isolate …)). Description: ITC; 4°C.
Experiment [2] addresses T1, AGL55, 55-mer A-domain peptide of …. Kind of experiment: ITC; 25°C.
For experiment [3] the target is unchanged. Description: ITC; 37°C.

B1: K2hPg, kringle-2 domain of human plasminogen (domain or fragment)
chain: YVEFSEECMHGSGENYDGKISKTMSGLECQAWDSQSPHAHGYIPSKFPNKNLKKNYCRNPDRDLRPWCFTTDPNKRWEYCDIPRCAA
Regarding B1, the values for the Kd in experiment [1], in experiment [2] and in experiment [3] were 2.6 nM, 31 nM and 236 nM, respectively.
